First the molecules themselves.
T1: Cas12i3 N711R (Unidentified, N711R)
T1 chain: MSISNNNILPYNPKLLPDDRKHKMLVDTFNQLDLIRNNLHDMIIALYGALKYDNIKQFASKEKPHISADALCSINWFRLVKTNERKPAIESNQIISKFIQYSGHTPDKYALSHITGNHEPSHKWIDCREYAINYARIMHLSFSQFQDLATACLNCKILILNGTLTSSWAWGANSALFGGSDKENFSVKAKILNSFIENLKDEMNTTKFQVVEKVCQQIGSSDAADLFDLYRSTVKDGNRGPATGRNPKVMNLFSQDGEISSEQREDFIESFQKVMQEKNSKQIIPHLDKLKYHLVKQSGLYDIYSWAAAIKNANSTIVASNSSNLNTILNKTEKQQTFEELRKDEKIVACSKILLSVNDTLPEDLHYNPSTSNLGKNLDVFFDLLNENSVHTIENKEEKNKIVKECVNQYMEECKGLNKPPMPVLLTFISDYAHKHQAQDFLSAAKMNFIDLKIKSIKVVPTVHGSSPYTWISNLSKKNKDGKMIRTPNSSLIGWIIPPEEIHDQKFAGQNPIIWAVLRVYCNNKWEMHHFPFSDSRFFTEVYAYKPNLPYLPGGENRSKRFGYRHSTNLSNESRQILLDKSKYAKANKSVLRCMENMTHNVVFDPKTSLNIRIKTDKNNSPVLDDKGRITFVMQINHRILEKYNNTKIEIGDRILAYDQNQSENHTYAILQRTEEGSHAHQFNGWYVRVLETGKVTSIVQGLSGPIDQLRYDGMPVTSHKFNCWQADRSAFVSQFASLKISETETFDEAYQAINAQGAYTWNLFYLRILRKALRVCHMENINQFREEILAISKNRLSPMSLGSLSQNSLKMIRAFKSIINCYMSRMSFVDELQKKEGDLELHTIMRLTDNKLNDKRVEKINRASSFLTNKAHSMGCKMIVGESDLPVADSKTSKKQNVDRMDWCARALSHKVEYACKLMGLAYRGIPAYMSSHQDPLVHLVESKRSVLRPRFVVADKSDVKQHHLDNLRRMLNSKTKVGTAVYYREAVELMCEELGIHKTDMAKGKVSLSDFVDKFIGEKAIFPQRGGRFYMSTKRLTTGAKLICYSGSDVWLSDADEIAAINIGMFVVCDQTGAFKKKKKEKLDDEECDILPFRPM

T2: Cas12i3 S536R (Unidentified, S536R)
T2 chain: T1 chain with S536R, R711N

B1: AAVS1_T3 crRNA ; AAVS1_T3 target (ssRNA ; dsDNA)
RNA: AUAGUGUGUCCUUAGUUGACAUGUGAGAAUGGUGCGUCCUAG
DNA 1: GTGAGAATGGTGCGTCCTAG
DNA 2: CTAGGACGCACCATTCTCAC
B2: VEGFA_T2 crRNA ; VEGFA_T2 target (ssRNA ; dsDNA)
RNA: AUAGUGUGUCCUUAGUUGACAUAAUCCUCCACCAGUCAUGGU
DNA 1: AATCCTCCACCAGTCATGGT
DNA 2: ACCATGACTGGTGGAGGATT
B3: EMX1_T5 crRNA ; EMX1_T5 target (ssRNA ; dsDNA)
RNA: AUAGUGUGUCCUUAGUUGACAUUAUUAUUCCCAUAGGGAAGG
DNA 1: TATTATTCCCATAGGGAAGG
DNA 2: CCTTCCCTATGGGAATAATA

Substitutions are numbered along the chain they refer to.

The target of the first series is T1, Cas12i3 N711R. Nature of the series: cell_activity; fold change in % indels, HEK293T; PAM not stated in example. The method, then: (§1) Approximately 16 hours prior to transfection, 100 μl of 25,000 HEK293T cells in DMEM/10% FBS+Pen/Strep were plated into each well of a 96-well plate. On the day of transfection, the cells were 70-90% confluent. For each well to be transfected, a mixture of 0.5 μl of Lipofectamine 2000 and 9.5 μl of Opti-MEM was prepared and then incubated at room temperature for 5-20 minutes (Solution 1). […] In the case of negative controls, the crRNA was not included in Solution 2. The solution 1 and solution 2 mixtures were mixed by pipetting up and down and then incubated at room temperature for 25 minutes. Following incubation, 20 μL of the Solution 1 and Solution 2 mixture were added dropwise to each well of a 96 well plate containing the cells. 72 hours post transfection, cells are trypsinized by adding 10 μL of TrypLE to the center of each well and incubated for approximately 5 minutes. 100 μL of D10 media was then added to each well and mixed to resuspend cells. The cells were then spun down at 500 g for 10 minutes, and the supernatant was discarded. QuickExtract buffer was added to ⅕ the amount of the original cell suspension volume. Cells were incubated at 65° C. for 15 minutes, 68° C. for 15 minutes, and 98° C. for 10 minutes.
(§2) Samples for Next Generation Sequencing were prepared by two rounds of PCR. The first round (PCR1) was used to amplify specific genomic regions depending on the target. PCR1 products were purified by column purification. Round 2 PCR (PCR2) was done to add Illumina adapters and indexes. Reactions were then pooled and purified by column purification. Sequencing runs were done with a 150 cycle NextSeq v2.5 mid or high output kit.
B1: the binding signal is 2.79 fold of wild-type.
B2: the binding signal was 2.17 fold of wild-type.
Consider B3, for which the binding signal was 1.56 fold of wild-type.

The next series concerns the target T2, Cas12i3 S536R. The description is as above. The method, then: as §1, §2
B1: the binding signal is 2.16 fold of wild-type.
B2: the binding signal was 1.8 fold of wild-type.
The same measure, in the same setting: to B3 belongs 1.27 fold of wild-type.

The record behind these values is patent US20240352434, “COMPOSITIONS COMPRISING A VARIANT CAS12I3 POLYPEPTIDE AND USES THEREOF” (Arbor Biotechnologies, Inc., published 2024).
